Data: article PMC7305997 (ACS chemical biology, 2020)
Ends that are not written are not given here.

T1: biotinylated CIB1 (Homo sapiens, UniProt Q99828)
T1 sequence (Q99828 1-191): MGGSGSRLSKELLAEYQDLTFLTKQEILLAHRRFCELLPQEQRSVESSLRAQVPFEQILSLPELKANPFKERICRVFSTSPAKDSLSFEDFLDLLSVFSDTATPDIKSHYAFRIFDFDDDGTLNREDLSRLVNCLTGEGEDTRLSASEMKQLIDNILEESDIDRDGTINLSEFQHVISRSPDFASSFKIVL

T2: full length human CIB1 (Homo sapiens, UniProt Q99828)
T2 sequence (Q99828 1-191): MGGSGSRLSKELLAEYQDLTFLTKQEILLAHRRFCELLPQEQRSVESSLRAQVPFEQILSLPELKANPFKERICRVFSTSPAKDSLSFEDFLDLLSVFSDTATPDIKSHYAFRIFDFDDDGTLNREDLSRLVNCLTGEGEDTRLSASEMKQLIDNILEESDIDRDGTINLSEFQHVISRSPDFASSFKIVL

T3: Full length human CIB1 (calcium and integrin binding protein 1), N-terminal hexahistidine tag (human, UniProt Q99828 1-191)
T3 sequence (looked up): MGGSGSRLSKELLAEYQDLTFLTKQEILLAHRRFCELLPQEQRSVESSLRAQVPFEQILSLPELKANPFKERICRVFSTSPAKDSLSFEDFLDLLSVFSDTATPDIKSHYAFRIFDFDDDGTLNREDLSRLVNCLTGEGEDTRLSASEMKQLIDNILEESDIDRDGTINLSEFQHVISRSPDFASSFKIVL


Each molecule was assayed against T1, biotinylated CIB1 (assay: biochemical). Conditions: not given.
Assay type: binding

| Molecule | IC50 [nM] | Kd [nM] |
| --- | --- | --- |
| EDGGSFWYGAMKALYG-NH2 [UNC10245092] | 46 ± 13 | 46 ± 13 |

These molecules were tested against T2, full length human CIB1 (assay: Isothermal titration calorimetry). Conditions: ITC, 25°C, one site binding model; replicates as for Kd.

| Molecule | n (binding stoichiometry) | ΔH [kcal/mol] |
| --- | --- | --- |
| EDGGSFWYGAMKALYG-NH2 [UNC10245092] | 1.1 ± 0.1 | -14.4 ± 2.2 |

These molecules were tested against T3, Full length human CIB1 (calcium and …) (assay: ITC). Conditions: not given.

| Molecule | Kd [nM] | dH [kcal/mol] | stoichiometry N |
| --- | --- | --- | --- |
| EDGGSFWYGGMKALYG [UNC10245092 A5G] | – | -7.7 | 1 |
| EDGGSFWYGAAKALYG [UNC10245092 M6A] | – | -8.1 | 1 |
| EDGGSFWYGAMKALAG [UNC10245092 Y10A] | – | -7.1 | 1.1 |
| EDGGSAWYGAMKALYG [UNC10245092 F1A] | – | -9.8 | 0.94 |
| H-EDGGSFWYGAMKALYG-NH2 [UNC10245092 (NH2-EDGGSFWYGAMKALYG-amide)] | 29.4 | -14.4 | 1.1 |

Results, then the molecule that gave them:

| Kd [nM] | dH [kcal/mol] | stoichiometry N | Molecule |
| --- | --- | --- | --- |
| 52.1 | -14 | 1.1 | Ac-FWYGAMKALYG [Acetyl short (Ac-FWYGAMKALYG)] |
| – | -13.8 | 1 | EDGGSFWYGAMKGLYG [UNC10245092 A8G] |
| – | -5.9 | 0.67 | EDGGSFAYGAMKALYG [UNC10245092 W2A] |
| – | -16.1 | 1 | EDGGSFWAGAMKALYG [UNC10245092 Y3A] |
| – | -8.8 | 0.99 | EDGGSFWYGAMKAAYG [UNC10245092 L9A] |
| 45 | -16.1 | 1.1 | Ac-EDGGSFWYGAMKALYG [Acetyl long (Ac-EDGGSFWYGAMKALYG)] |
